Legend:
[1] = biological target: ΔVP1, Murine polyomavirus VP1 with the putative nuclear localization signal deleted (Murine polyomavirus) (UniProt P03090); assay: SEC-MALS
SEC-MALS = biological target: the molecule itself; assay: SEC-MALS

“ΔVP1, Murine polyomavirus VP1 with the putative nuclear localization signal deleted (from UniProt P03090 1-383) (natural protein)” was tested, and the stoichiometry N [1] was 72 pentamers.

B1: wild-type Murine polyomavirus VP1 (natural protein, UniProt P03090 1-383, looked up)
chain: MAPKRKSGVSKCETKCTKACPRPAPVPKLLIKGGMEVLDLVTGPDSVTEIEAFLNPRMGQPPTPESLTEGGQYYGWSRGINLATSDTWIPRNNTLPTWSMAKSSFPCLNEDLTCDTLQMWEAVSVKTEVVGSGSLLDVHGFNKTHRFSKHKGNSTPVEGSQYHVFAGGGEPLDLQGLVTDARTKYKEEGVVTIKTITKKDMVNKDQVLNPISKAKLDKDGMYPVEIWHPDPAKNENTRYFGNYTGGTTAPPVLQFTNTLTTVLLDENGVGPLCKGEGLYLSCVDIMGWRVTRNYVSSLEKGFPRYFKITLRKRWVKNPYPMASLISSLFNNMLPQVQGQPMEGENTQVEEVRVYDGTEPVPGDPDMTRYVDRFGKTKTVFPGN
For B1, the “stoichiometry N” value (SEC-MALS) was about 72 pentamers.
